This passage reports Kd results from article PMC5428781, “Novel insights into the interaction of UBA5 with UFM1 via a UFM1-interacting sequence” (Scientific Reports, 2017).

Ends that are not written are not given here. fluorescein = fluorescein label on the N-terminus

The target of this assay is T1, ubiquitin-fold modifier 1 (UFM1) (human, UniProt P61960 1-83).
T1 construct: ubiquitin-fold modifier 1 (UFM1), human; the form that ends at Gly 83 (the residues missing in the models are counted up to Gly 83); pET15b, N-terminal His6 followed by a TEV site; purified by the protocol of the UBA5 constructs, which removes the tag; In solution a monomer and a fraction of dimer; also called UFM1 WT; UFM1 alone; source: E. coli, purified (His-Trap, TEV cleavage, second …)
The assay can be described thus: fluorescence polarisation; UFM1 at various concentrations with 120 nM N-terminal fluorescein-labeled UIS peptide; 50 mM Hepes pH 7.5, 150 mM NaCl, 5% glycerol, 0.2 mg/ml BSA; room temperature; triplicate; one site specific binding fit. The following applies: both partners purified.

T1 sequence (P61960 1-83): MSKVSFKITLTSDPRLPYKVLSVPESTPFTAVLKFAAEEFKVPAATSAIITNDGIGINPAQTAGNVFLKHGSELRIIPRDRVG

With fluorescein-IIHEDNEWGIELV (peptide, UniProt Q9GZZ9 334-346, looked up, source: synthetic peptide) [fluorescein-labeled UIS peptide (amino acids 334–346 of UBA5)], the affinity, expressed as Kd, was 8.47 µM.
